Results as given in the domain aggregation screens of Martell et al. (2025).

assay: soluble fraction after stress (log2 fold change); higher = more stays soluble; pooled small domains, quantitative proteomics; conditions: stress: 50 degC
In short: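 The stress applied to every library was 50°C. These custom libraries of small protein domains were pooled and measured at high throughput with quantitative proteomics as the read-out. Aggregation propensity is expressed as the base-two logarithm of the fold change in how much of each protein remains soluble. The higher the value, the more of that protein stays in solution.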

Sequence	soluble fraction (log2)
HMNADAIIGRMGKVTEPITPDGYGRVEIDGDSWKATAVGGVAIAEGTRVSVVSLDSIIITVKTV	-0.293
HMVDDNFGLGEVTDQNYLTVLGRALDLIGWTDEQADSYSLKTFGVPHWDELGRSQAEKLVAHLIGLLKEQM	-0.33
HMGEWHQMLRSWGETELKNGRQNILDEAVPAFERAMIETALAHTSGRKKDAALLLGWGRNTLTRKLQEHSI	-0.0702
HMDRSQRDQEQAQLIRLVQQAFDDSGQRYGAEKIRITLAEGGIRVSTKRIAAIMQELDLRSI	-1.36
HMRSSALDEIPGIGKQRKKNLLVHFTSVAKIKEASLDEIAAVPGMNRKAALVVVEFFQNQERE	-1.79
HMSDQTYVKDPETGEIFRVHKRVWETGEFWRDPVWGNILGGVERGSELERLLREEGWRPLQQSLEGFPEQ	-0.104
HMKLHQDLQIKVIDAANNKVEFIDTATGTSLATRTLDVNGVSKARGFEATLYGVVEDNDVFHIA	0.158
HMVYLPGEEIPLKIIQEGKESGQGVGYLEDGTMVVVENGRRYLNQEVLVQVTKILQTNAGRLIFAVP	-0.346
HMDSGINVWASAEGLTITADKDTTVYVYDIYGRTIHTSEVKAGTSDIAINTKGIVIVKANGYTKKII	-1
HMGDADDLSRELLQQGLSLKEAVADFERRYLQQAMQRHSSIASVSEALDVHFSTLWRKLVKYNLV	-0.047
HMPKLVGEVMQTLDALRREKGLSLLLVEQNARAALGVVDRVYVLERGRVVFEGSAKEAMEDQDVMEFYLG	0.0385
HMIIVMKRNATETQIDHVVRWVESIGYRAHRSNGTEQTVVKAVGGERGGEELKYLAALSGVEKVVPIR	-0.0291
HMVGGIAIGQFNVPRGSVKVTAGGRLLQEGLDYTVNYQAGRVQILDESLKNSNVPIEISTESNS	0.229
HMAAPPPLSDYRNMQEAEHIRNILLQHHGNVRRAAAALELSRPYLYQKMKQLGINIAELRELSLSHSS	-0.559
HMEKILSYKALMNDAGKRIDQFLANNEKDISRTRIKSLILEGSLKLDNNIINDPSYKIKENDVFTLFIPEA	-0.429
HMPEPMKLSDLPPELWQRVSDLFDEVIDLPETDRIPYIRNLWGSEPLVAKELMALLVAAANVD	-0.274
HMVITISEADVSGTYTKSITQGDWKYIRTWTPFEDERLYDLAKDPMELRDLAPAAPSKLAELRELLSALVS	-1.51
HMLKFGLSQRELQILALLPTDEPLSILAKSLFISESTLKTHLTHIYRKLGVKNRLQAINVARKAGLLK	-0.283
HMTRVANIPYSEFLKLVETDKINDVSMVGKTISGHLDDGTKFSTYTPPNDPNLIDKLSKHNVIIKAGPE	0.0971

Sequence	soluble fraction (log2)
HMIVVMARETSTDDLEAIRERIESRGMVAQINLGVERTVIGVMGSIPPDFKDEMELMNGVVEVVMISK	-0.408
HMVILPGEKMVVKIVQPGKEKGQGVGYLADGTMIVVDSGDKMIGQDVPTEITRVFQTVAGKMLFAVPVD	-0.426
HMRSFGTLRRLPSGRYQASYAGPDLRRHAAPTTFETKLDAEGWLRDEHRMIERDEWTAPAARSQLK	0.214
HMRKEDYLPIGSVINMDDRKFRVDSVDFDKDKVSLQDMALADARMPIFWEEPLTVVRELYEQQDE	0.0652
HMENEIVMPVQINGKKRGDLTIARDADQASIQKAVLELDFVKAALNGGSPKKVIVVPQRIVNVV	0.325
HMQEPVYRPVFPGMTDADRQSAMEALKEGGFSPRLNRQTGQLEVDASGYHEAKIYLASQGIPAE	0.124
HMPKDLEKRAAILAAAKHLFPVHGFEGTSMDAIAALANVSKLTVYSHFKDKESLFTEAIREK	-0.087
HMDLPGIVTETDRQRADLAARIGAAKVEAVLAGGARSVEADEDFDADTRRELHQFLTRMARRAFLEER	-0.0484
HMSAMKYTSEVFQRLSRGQFISSNSIDAETRAIYSDIEENQQEYEDYFSKIDFLLSSGDGFYYFSRK	-2.4
HMLPIMDRLITAGISINTAKKWVDKFGDKRIKQNLAYSLAKQKEGKVKTNFVGYLAKAIEEDWGSGWE	-0.557
HMVRRSERLHALTESLRRSGNRGRTAEQLATEFEVSVRTIKRDLVALEASGLPLWSRPGPGGGYGLLS	-1.02
HMVIMDLIVNGEPKYVVGEQLHLILDELGYSGKHFVVELNGEILSKEAYTTTKLTAADRLEIVSFVGG	-3.5
HMATRLPFGFAKRFGVLVEGKDDQITVYHKDGLQTAVILEIQRYLARPFRFEAVTPEEFERRLGLAYQS	-0.808
HMGMLATFVTSAKVPDDVVYAITKEVFENLDEFKKLHPALEGLTRETMLEGLTAPIHPGALKYYKEAGLM	-0.522
HMVKDIEFSLPLEQDYYKVLISVKDSQGKRQVYEELHRAGDTVYAAVRYYGSGELEIHLNGKFYKTIK	-0.521
HMVNVTEAIDLENGTGKLSGTFNHEPKSAEEIIFLLKIDTNKWKLSQYWNKQMGDHWRVSALISQI	-1.91
HMLLLHINQMGVTEFSQLELNHVRSWLANLQIKGAARSSITRRVVSVRAFTYWGAKNGWLASDIGRDLVAP	-0.277
HMPTTLEGIEKYLSSGLIKGIGPHLAGKLVEAFGTRVFEVVEHQPERLRTVGGIGRTRAESITSAWRDQ	-0.168
HMTRHIQVNDSIASTPIEDVYFSTRTYNALLNNGISVIGDLSKYTHDDLYASFQGLGRAGVLEIEAYLRQD	-1.53
